This passage reports other and Kd results from publication PMC9942873.

For assay [1], the target named is Pfs48/45 in its native configuration on the female gamete surface membrane (Plasmodium falciparum NF54 (endogenous in gametes)).
Assay [2] has as its target Pfs48/45 6C.mAgE1 (K416N; C terminal 6x HIS tag) (Plasmodium falciparum). Briefly: BLI. (In general: In BLI a coated tip is dipped into the sample, and binding shifts an interference pattern.)
For assay [3], the target named is Pfs48/45 6C.mAgE1 (L314I; C terminal 6x HIS tag) (Plasmodium falciparum). Briefly: BLI.
For assay [4], the target named is Pfs48/45 6C.mAgE1 (S322N; C terminal 6x HIS tag) (Plasmodium falciparum). Briefly: BLI.
Assay [5] deals with Pfs48/45 6C.mAgE1 (D320H; C terminal 6x HIS tag) (Plasmodium falciparum). Briefly: BLI.
The target of assay [6] is Pfs48/45 in its native configuration on the female gamete surface membrane (Plasmodium falciparum NF54 (endogenous in gametes)). This is another data set of the same source.

Residue numbers refer to the chain shown, from its start. Read-outs that look alike come from different tables or passages of the source.

B1: RUPA-50 (hIgG1) (antibody, V domains shown)
VH: QVHLVESGGGVVQPGRSLRLSCAASGFTFRSYGMHWVRRVPGKGLEWVATISYDETFKDYPDSVKGRFTISRDNSKNTLFLQMNSLRPADTAVYYCAKDRAHSMHYFEYWGRGTLVTVSS
VL: SYELTQPPSVSVSPGQTARLTCSGDALPKKFAYWYQLKSGQAPVLVIYEDSKRPSGIPERFSGSSSGTTATLTISGAQVEDEADYYCYSRDGSGDQKNIFGGGTKLTVL
B1 came in with an other in assay [1] greater than 80 % TRA.

B2: RUPA-160 (hIgG1) (antibody, V domains shown)
VH: QVQLVQSGAEVKKPGASVKASCKASGYTFDNFDIIWARQATGQGLEWMGWMNPNTGKKGYAQNLKDRVTMTRDSSISTAYLELSSLRSEDTAVYYCVRAVGSYYGSGGWFDPWGQGTLVTVSS
VL: QSVLTQPPSASGTPGQRVTIACSGSSSNIGGNNVKWYQQLPGTAPKLVIYNNDERPPGVPDRVSGSKSGTSASLAISGVQSEDEADYYCATWDDSMKREVFGGGTKLTVL
On to B2, for which the other in assay [1] is 80 % TRA.

B3: RUPA-29 (hIgG1) (antibody, V domains shown)
VH: QVHLVESGGGVVQPGRSLRLSCAASGFTFRSYGMHWVRLAPGKGLEWVTAIWYDGSKKHFADSVKGRFTISRDNSKNTLYLQMSSLRVEDTAVYYCARDFAHGAFYPVDWGRGTLVTVSS
VL: SYELTQPPSVSVSPGQTARITCSGDALPKKHAYWYQQKSGQAPVLVIYDDSKRPSGIPERFSGSSSGTMATLSISGAQVEDEAAYYCYSSDTSANYWVFGGGTKLTVL
B3: the other in assay [1] was greater than 80 % TRA.

B4: RUPA-29 (Fab) (Fab, V domains shown)
VH: B3 VH
VL: B3 VL
In the case of B4, the Kd in assay [2] is 109 nM.

B5: RUPA-54 (hIgG1) (antibody, V domains shown)
VH: QVQLVESGGGVVQPGRSLRLSCTASGFTFRSYGIHWVRQAPGKGLQWVAFISYDGRNKYYADSVKGRFTISRDNSKNTLYLQMSGLRADDTAVYYCAKDSDNDCTATSCYTVSWGQGTLVTVSS
VL: SYELTQPPSVSVSPGQTARITCSGDALPKKYAYWYQQKSGQAPVLVIYEDKKRPSGIPERFSGSSSGTMATLTISGAQVEDEADYYCYSTDSRTDHGGIFGGGTKLTVL
Consider B5, for which the other in assay [1] was greater than 80 % TRA.

B6: RUPA-100 (hIgG1) (antibody, V domains shown)
VH: QVQLVESGGGVVQPGRSLRLSCAASGFSFSHYGMHWVRQAPGKGLEWVAVISYDGNYKYYGDSVKGRFTISRDNFKNTLYLQMNSLRPEDTAVYYCAKGKAHSCVSTSCYTDFWGQGTLVTVPS
VL: B5 VL with K51S, A83G, R93S, T94Y, D95N, G97R, I99V
As to B6, in assay [1], the other was greater than 80 % TRA.

B7: RUPA-44 (Fab) (Fab, V domains shown)
VH: QLQLQESGPGLVKPSETLSLTCTVSGGSISRSPYYWGWIRQPPGKGLEWFGSIYNNGSTYYNPPLKSRLTISVDTSKNQFSLKLSSVTAADTAVYYCARHGGSTGMKVVVIAPPDYWGQGTLVTVSS
VL: DIQMTQSPATLSASVGDRVTITCRASQSISSWLAWYQQKPGEAPKLLIYKASSLQSGVPSRFSGSGSGTKFSLTISSLQPDDFATFYCQQYHSYPYTFGQGTKLEIK
Turning to B7, the Kd in assay [3], in assay [4], in assay [2] and in assay [5] was less than 20 nM in each case.

B8: RUPA-117 (Fab) (Fab, V domains shown)
VH: B7 VH with I53V, P64S, L69V, V94L
VL: B7 VL with S31I, G66A
On to B8, for which the Kd in assay [3], in assay [4], in assay [2] and in assay [5] was less than 20 nM throughout.

B9: RUPA-47 (Fab) (Fab, V domains shown)
VH: QVQLVQSGAEVKKPGASVKLSCTASGYTFTNFGITWVRQAPGQGLEWMAWISVYSGDTDYAQRFQGRVTMTTDTSTRTAYMEMRSLSFDDTAVYYCVRGGRDSPILGGYWGQGTLVTVSS
VL: EIVLTQSPGTLSLSPGERVTLSCRASQSVRSMYLAWYQQKPGQAPRLLIHGASIRATGIPDRFSGSGSGTDFTLTISRLEREDFAVYYCHQYGSSPLTFGGGTKVESK
In assay [6], B9 showed an other of 100 % TRA.

The term Kd denotes the free concentration of one partner at which half of the binding sites on the other are occupied at equilibrium, for simple one-to-one binding. A high value points to weaker binding.
